Sequences and labels used below:
B1: peptide aptamer KDI1 (SEQ ID NO:1), displayed in E. coli thioredoxin A (TrxA) (designed binder, not shown: large carriers)
chain: MSDKIIHLTDDSFDTDVLKADGAILVDFWAEWCGVFGVSWVVGFWCQMHRRLVCPCKMIAPILDEIADEYQGKLTVAKLNIDQNPGTAPKYGIRGIPTLLLFKNGEVAATKVGALSKGQLKEFLDANLA
notes: The construct used in the GST pulldown is not described
B2: peptide aptamer KDI3 (SEQ ID NO:2), displayed in E. coli thioredoxin A (TrxA) (designed binder, not shown: large carriers)
chain: MSDKIIHLTDDSFDTDVLKADGAILVDFWAEWCGTFSPVVLLYRLFLATVLIWAPCKMIAPILDEIADEYQGKLTVAKLNIDQNPGTAPKYGIRGIPTLLLFKNGEVAATKVGALSKGQLKEFLDANLA
notes: Built as the yeast two-hybrid prey; The construct used in the GST pulldown is not described
B3: peptide aptamer KDI4 (SEQ ID NO:3), displayed in E. coli thioredoxin A (TrxA) (designed binder, not shown: large carriers)
chain: MSDKIIHLTDDSFDTDVLKADGAILVDFWAEWCGLSFQLSPLSLVHRWGTTVDVPCKMIAPILDEIADEYQGKLTVAKLNIDQNPGTAPKYGIRGIPTLLLFKNGEVAATKVGALSKGQLKEFLDANLA
notes: as for B2

T1 sequence (P04386 1-147 limits assumed): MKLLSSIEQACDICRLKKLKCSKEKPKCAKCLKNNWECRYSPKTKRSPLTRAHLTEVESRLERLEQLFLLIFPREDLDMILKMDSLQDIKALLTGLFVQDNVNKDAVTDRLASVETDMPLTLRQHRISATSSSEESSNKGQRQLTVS

This assay has as its target T1, Gal4 DNA binding domain alone (UniProt P04386 1-147).
T1 construct: Negative control bait in the yeast two-hybrid retransformation
Put plainly: yeast two-hybrid, retransformation of rescued plasmids.
As for B1, the binding result is “no binding”.

Take B2: the binding result is reported as “no binding”.

Turning to B3, the binding result is listed as “no binding”.

These data come from EP1605964B1 (GEORG-SPEYER-HAUS CHEMOTHERAPEUTISCHES FORSCHUNGSINSTITUT, dated 2004).
